The text below walks through data of US20030133907A1.

The target in this assay is T1, IFNG receptors on HeLa cells (UniProt P15260).
T1 sequence (looked up): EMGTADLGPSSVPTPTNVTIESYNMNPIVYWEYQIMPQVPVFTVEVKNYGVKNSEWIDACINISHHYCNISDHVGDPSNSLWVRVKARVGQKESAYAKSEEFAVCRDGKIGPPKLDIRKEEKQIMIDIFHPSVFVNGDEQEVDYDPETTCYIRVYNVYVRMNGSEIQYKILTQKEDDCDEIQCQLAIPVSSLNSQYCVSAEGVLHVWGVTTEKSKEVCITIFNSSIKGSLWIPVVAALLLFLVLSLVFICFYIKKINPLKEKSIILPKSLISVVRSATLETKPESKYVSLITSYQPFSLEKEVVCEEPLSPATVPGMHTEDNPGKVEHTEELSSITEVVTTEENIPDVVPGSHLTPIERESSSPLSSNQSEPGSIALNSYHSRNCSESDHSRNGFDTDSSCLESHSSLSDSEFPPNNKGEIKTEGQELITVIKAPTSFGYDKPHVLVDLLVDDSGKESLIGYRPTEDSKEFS
Nature of the assay: cell-based or functional assay.

In turn, “E38C + S99T (full-length + 10 kDa mPEG) (from UniProt P01579 24-161) (ligand)” returned an Activity relative to non-PEGylated product subjected to “PEGylation procedure” (%), Primary Assay of 41%.
On to “E38C + S99T (full-length) (from UniProt P01579 24-161) (ligand)”, for which the % activity of full-length wt (AU/ml basis), Primary Assay was 71%; the % activity of full-length wt (specific activity), Primary Assay is 16%; the Activity (AU/ml), Primary Assay (ISRE-luciferase in HeLa cells), after transient transfection stood at 1e+07 AU/ml; the Specific activity (AU/mg), Primary Assay (ISRE-luciferase in HeLa cells), after purification is 3.4e+06 AU/mg.
In turn, “E38N (full-length) (from UniProt P01579 24-161) (ligand)” came in with a % activity of full-length wt (AU/ml basis), Primary Assay of 100% and an Activity (AU/ml), Primary Assay (ISRE-luciferase in HeLa cells), after transient transfection of 1.4e+07 AU/ml.
For the substance “E38N + K61T (full-length) (from UniProt P01579 24-161) (ligand)”, the % activity of full-length wt (AU/ml basis), Primary Assay was determined as 86% and the Activity (AU/ml), Primary Assay (ISRE-luciferase in HeLa cells), after transient transfection came to 1.2e+07 AU/ml.
As for “E38N + K61T + S99T (full-length) (from UniProt P01579 24-161) (ligand)”, the % activity of full-length wt (AU/ml basis), Primary Assay was 10% and the Activity (AU/ml), Primary Assay (ISRE-luciferase in HeLa cells), after transient transfection came to 1.4e+06 AU/ml.
Taken in the same sequence, the figures for “E38N + S40T (full-length) (from UniProt P01579 24-161) (ligand)” were 71% and 9.9e+06 AU/ml.
Taken in the same sequence, the figures for “E38N + S40T + K94C + S99T (full-length) (from UniProt P01579 24-161) (ligand)” were 7% and 940000 AU/ml.
Taken in the same sequence, the figures for “E38N + S40T + N59C + S99T (full-length) (from UniProt P01579 24-161) (ligand)” were 79% and 1.1e+07 AU/ml.
With “E38N + S40T + N83C + S99T (full-length) (from UniProt P01579 24-161) (ligand)”, the % activity of full-length wt (AU/ml basis), Primary Assay came to 5% and the Activity (AU/ml), Primary Assay (ISRE-luciferase in HeLa cells), after transient transfection worked out at 720000 AU/ml.
“E38N + S40T + S99T (full-length) (from UniProt P01579 24-161) (ligand)”: the % activity of full-length wt (AU/ml basis), Primary Assay came to 93%; the % activity of full-length wt (specific activity), Primary Assay was 67%; the Activity (AU/ml), Primary Assay (ISRE-luciferase in HeLa cells), after transient transfection was determined as 1.3e+07 AU/ml; the Specific activity (AU/mg), Primary Assay (ISRE-luciferase in HeLa cells), after purification is 1.4e+07 AU/mg.
“E38N + S40T + S99T (truncated after Leu135) (from UniProt P01579 24-158) (ligand)” registered a % activity of full-length wt (AU/ml basis), Primary Assay of 29% and an Activity (AU/ml), Primary Assay (ISRE-luciferase in HeLa cells), after transient transfection of 4e+06 AU/ml.
Substance “E38N + S40T + S99T + N104C (full-length) (from UniProt P01579 24-161) (ligand)” returned a % activity of full-length wt (AU/ml basis), Primary Assay of 16% and an Activity (AU/ml), Primary Assay (ISRE-luciferase in HeLa cells), after transient transfection of 2.3e+06 AU/ml.
For “N10C + E38N + S40T + S99T (full-length) (from UniProt P01579 24-161) (ligand)”, in that order: 11% and 1.5e+06 AU/ml.
Regarding “N10C + S99T (full-length + 5 kDa mPEG) (from UniProt P01579 24-161) (ligand)”, the Activity relative to non-PEGylated product subjected to “PEGylation procedure” (%), Primary Assay was 23%.
For the substance “N10C + S99T (full-length) (from UniProt P01579 24-161) (ligand)”, the % activity of full-length wt (AU/ml basis), Primary Assay was determined as 18%; the % activity of full-length wt (specific activity), Primary Assay worked out at 18%; the Activity (AU/ml), Primary Assay (ISRE-luciferase in HeLa cells), after transient transfection came to 2.5e+06 AU/ml; the Specific activity (AU/mg), Primary Assay (ISRE-luciferase in HeLa cells), after purification stood at 3.8e+06 AU/mg.
On to “N16C + E38N + S40T + S99T (full-length) (from UniProt P01579 24-161) (ligand)”, for which the % activity of full-length wt (AU/ml basis), Primary Assay turned out to be 26% and the Activity (AU/ml), Primary Assay (ISRE-luciferase in HeLa cells), after transient transfection was determined as 3.7e+06 AU/ml.
“N16C + S99T (full-length + 5 kDa mPEG) (from UniProt P01579 24-161) (ligand)” gave an Activity relative to non-PEGylated product subjected to “PEGylation procedure” (%), Primary Assay of 59%.
“N16C + S99T (full-length + 10 kDa mPEG) (from UniProt P01579 24-161) (ligand)”: the % activity of full-length wt (specific activity), Primary Assay worked out at 6%; the Specific activity (AU/mg), Primary Assay (ISRE-luciferase in HeLa cells), after purification worked out at 1.3e+06 AU/mg; the specific activity relative to the corresponding non-PEGylated IFNG variant, Primary Assay was determined as 15%.
As for “N16C + S99T (full-length) (from UniProt P01579 24-161) (ligand)”, the % activity of full-length wt (AU/ml basis), Primary Assay turned out to be 79%; the % activity of full-length wt (specific activity), Primary Assay came out at 11%; the Activity (AU/ml), Primary Assay (ISRE-luciferase in HeLa cells), after transient transfection came out at 1.1e+07 AU/ml; the Specific activity (AU/mg), Primary Assay (ISRE-luciferase in HeLa cells), after purification worked out at 2.3e+06 AU/mg.
Consider “N59C + S99T (full-length + 5 kDa mPEG) (from UniProt P01579 24-161) (ligand)”, for which the % activity of full-length wt (specific activity), Primary Assay came out at 11%; the Specific activity (AU/mg), Primary Assay (ISRE-luciferase in HeLa cells), after purification came to 2.4e+06 AU/mg; the specific activity relative to the corresponding non-PEGylated IFNG variant, Primary Assay came out at 15%.
As for “N59C + S99T (full-length) (from UniProt P01579 24-161) (ligand)”, the % activity of full-length wt (specific activity), Primary Assay was 30% and the Specific activity (AU/mg), Primary Assay (ISRE-luciferase in HeLa cells), after purification is 6.3e+06 AU/mg.
With “S99T (full-length) (from UniProt P01579 24-161) (ligand)”, the % activity of full-length wt (AU/ml basis), Primary Assay was 36%; the % activity of full-length wt (specific activity), Primary Assay is 105%; the Activity (AU/ml), Primary Assay (ISRE-luciferase in HeLa cells), after transient transfection worked out at 5.1e+06 AU/ml; the Specific activity (AU/mg), Primary Assay (ISRE-luciferase in HeLa cells), after purification came to 2.2e+07 AU/mg.
Consider “S99T (truncated after Leu135) (from UniProt P01579 24-158) (ligand)”, for which the % activity of full-length wt (AU/ml basis), Primary Assay is 25% and the Activity (AU/ml), Primary Assay (ISRE-luciferase in HeLa cells), after transient transfection is 3.5e+06 AU/ml.
On to “S99T + N104C (full-length + 5 kDa mPEG) (from UniProt P01579 24-161) (ligand)”, for which the Activity relative to non-PEGylated product subjected to “PEGylation procedure” (%), Primary Assay worked out at 42%.
Regarding “S99T + N104C (full-length) (from UniProt P01579 24-161) (ligand)”, the % activity of full-length wt (AU/ml basis), Primary Assay was found to be 36%; the % activity of full-length wt (specific activity), Primary Assay stood at 17%; the Activity (AU/ml), Primary Assay (ISRE-luciferase in HeLa cells), after transient transfection stood at 5e+06 AU/ml; the Specific activity (AU/mg), Primary Assay (ISRE-luciferase in HeLa cells), after purification came to 3.5e+06 AU/mg.
“Wild-type (full-length) rhuIFNG (from UniProt P01579 24-161) (ligand)” had an Activity (AU/ml), Primary Assay (ISRE-luciferase in HeLa cells), after transient transfection of 1.4e+07 AU/ml and a Specific activity (AU/mg), Primary Assay (ISRE-luciferase in HeLa cells), after purification of 2.1e+07 AU/mg.
With “Wild-type (truncated after Leu135) (from UniProt P01579 24-158) (ligand)”, the % activity of full-length wt (AU/ml basis), Primary Assay was 45% and the Activity (AU/ml), Primary Assay (ISRE-luciferase in HeLa cells), after transient transfection turned out to be 6.3e+06 AU/ml.
